B1: LINE1-full (parent)
chain: UACGUAGGUGGUUUUCCCCUGAUAGUGCUAAGGGGGCCUGGAAGUUUGGACUGGGCAGAGCUCAACACAGCGUGGCAAAGUGGCUGUGGCUAGACUGCCUCUCUGGAUUCCUCGUCACUCAGCAGGGCAUCUCUGAGAGAAAUGCC

Data on 167 variants can be found in the RNAGym collection of RNA variant scans (doi:10.7554/elife.90254).

The variants in this series derive from B1. Description: self-cleavage, relative activity (ratio to wild type); higher = more cleavage; in vitro, sequencing; the parent is a self-cleaving ribozyme.
On to U12C A22U, for which the self-cleavage came out at 1.68.

Regarding G10A U109C, the self-cleavage amounted to 1.08.

As for G11A A42G, the self-cleavage was determined as 1.43. The figure for U9C U119A is 1.36; for U9C U119C it is 1.36.

U12C G106A: the self-cleavage was determined as 1.68.

For the variant U12A A138U, the self-cleavage is 1.02. With U9G A138U the figure was 1.51. With G10A G36C the figure was 1.89.

G11A U29C: the self-cleavage is 1.25. As for U12A C18G, the self-cleavage turned out to be 1.01. The figure for U9C U26A is 1.14; for U9G A65G it is 0.25; for G10U U13C it is 0.83.

On to U9G C146U, for which the self-cleavage was found to be 1.29.

As to U12C G80A, the self-cleavage came to 0.84. For the variant G10A A57U, the self-cleavage amounted to 0.07. The figure for U12A A22G is 1.14; for U9C G21U it is 1.37. With U12C G144A the figure was 1.08; with G10U G97A, 0.11; with G10A A129U, 0.66. The figure for U12C A79G is 1.1; for U12A A31U it is 2; for U9C U108C it is 1.54.

With U9G A107U, the self-cleavage stood at 0.46. The figure for U9G A107G is 1.13; for G10A G11A it is 1.61; for U9C C17A it is 1.31. With U12A C16A the figure was 0.97; with U12C U23A, 1.08. Regarding U9G U102C, the self-cleavage amounted to 1.26.

As to G10U A78G, the self-cleavage was 1.09. On to U12C A24C, for which the self-cleavage is 1.61. As for U12C A24U, the self-cleavage worked out at 1.18. The figure for G11C U20A is 0.54. With U12C A138U the figure was 1.21; with U9G U119C, 1.32. With G10A U29C the figure was 1.12; with U9C G36C, 2.16; with G10C U96A, 0.22. As for U9C A129G, the self-cleavage was determined as 1.66. The figure for U9C A129U is 1.27; for U9C C98U it is 0.59; for G11A U52C it is 1.41. The figure for G10U U62C is 0.06. The figure for G11A U96C is 0.08. In the case of G11A U109C, the self-cleavage was 1.4. With G10A C131U the figure was 1.19; with U12C A65U, 0.21. The figure for U9C G53A is 1.2. Consider U12A C66U, for which the self-cleavage is 0.06. Turning to G10A U130C, the self-cleavage amounted to 2.22. With U12A U102A the figure was 1.79; with U9C G25U, 0.96; with U9C U134C, 1.05. The figure for G10A G35A is 0.92; for U9G G74A it is 0.88; for U9C G80A it is 1.65.

Consider U12C C17U, for which the self-cleavage was found to be 1.3.

Regarding G10U U112C, the self-cleavage is 0.93.

Consider G10A U102C, for which the self-cleavage turned out to be 1.39. U12A U115C: the self-cleavage amounted to 1.21. With U12A U115A the figure was 1.58; with G11A A50C, 1.24. The figure for U9G A77G is 1.55. The figure for U12C A142G is 1.13; for U12C U85A it is 0.06; for G11A A77G it is 1.08. Turning to U12A A136G, the self-cleavage turned out to be 2.03. With U12A A64G the figure was 0.27. As for U12A A64U, the self-cleavage stood at 0.79. With U9C U23A the figure was 1.22; with U9G A142G, 0.95. The figure for G11A A69G is 0.48. Turning to U9C G58A, the self-cleavage is 0.04. With G10A A30G the figure was 1.19; with U12A A117U, 1.36. Turning to U9G G93U, the self-cleavage is 0.05. The figure for U9G U96C is 0. With U9C C131U the figure was 1.6; with U9G A124U, 1.12; with U9C G105A, 1.47. Turning to U12C U20A, the self-cleavage was 1.23. The figure for U12C U20G is 0.78.

Consider U9C G10A, for which the self-cleavage came out at 0.86. With U9C U112G the figure was 2.63. With U12C A78U the figure was 1.52; with G11A A24U, 1.72. With U12C U73G the figure was 1.29.

Take U12C G75C: the self-cleavage was 0.66.

As for G10A U20C, the self-cleavage came to 1.6. G11C A67G: the self-cleavage turned out to be 0.46. For G11U A129G, the self-cleavage is 0.83.

Regarding U12C A94G, the self-cleavage turned out to be 0.37. With U12C C56A the figure was 0.01; with U12C U47C, 1.42.

Regarding U9C G83U, the self-cleavage turned out to be 0.94. The figure for G10A A78G is 0.91; for U12C G83U it is 1.07. The figure for U9C U100A is 1.41; for U9C U100C it is 1.51; for G11A A107G it is 1.65.

As for U12A U143A, the self-cleavage amounted to 1.28. The figure for U12A U143C is 1.14; for U9C U109A it is 1.37. The figure for U9C U109C is 0.99; for G10A U12G it is 0.83; for U12A U132C it is 1.41.

For U12C U46A, the self-cleavage stood at 1.24.

Regarding U12C U46G, the self-cleavage came out at 0.82. As to G11C A138G, the self-cleavage is 1.22. The figure for U9C G35U is 1.13. Turning to G10U C61U, the self-cleavage worked out at 0.05. The figure for G10A G21A is 1.14. With U9G U100A the figure was 0.86.

With U9G U100C, the self-cleavage came out at 1.61. With U12C A107G the figure was 0.99; with U9G, 0.93; with G10A A69G, 0.64. With G11A U15A the figure was 0.99; with G10A U15C, 1.2; with U9G U115C, 0.29.

For the variant U9C C19A, the self-cleavage turned out to be 1.55. The figure for U9C C19U is 1.65; for U12C G48A it is 0.97; for U9C U91C it is 1.75. The figure for U9C U91A is 0.7. With U12C A69U, the self-cleavage was found to be 0.09. The figure for U12C A69G is 0.64; for U9C U130G it is 0.74.

Take U9C U130A: the self-cleavage came to 1.16. With U9C U130C the figure was 1.3; with U12A U100C, 1.64; with U12A C76U, 1.23. Regarding G11A G70U, the self-cleavage is 0.07. With U9G U13G the figure was 1.31. The figure for U9G U13C is 0.65; for U9G U85C it is 0.38.

As for G10U A50U, the self-cleavage is 1.99.

With G11A G105A, the self-cleavage is 1.27. U12A G70A: the self-cleavage was determined as 0.18.

As for G11A A124G, the self-cleavage came out at 0.85.

On to G11A U112C, for which the self-cleavage was found to be 1.37. With G10A A67G the figure was 0.42. The figure for U12C A64G is 0.28; for U12C U87A it is 0.06; for U9C G33A it is 1.01. With G10A U115C the figure was 1.51; with G10A U115A, 0.86. On to U9C U132C, for which the self-cleavage was 1.47. The figure for U12C U15A is 0.7.

On to U12C U15C, for which the self-cleavage amounted to 1.05.

With U12A A59C, the self-cleavage was 0.61. The figure for U12A A59G is 0.27; for U9C C118U it is 0.92. Take U12A U23C: the self-cleavage turned out to be 1.47. With U12A U23A the figure was 1.58; with U12A U20C, 1.05. The figure for U12A A42U is 1.75; for U12A A42G it is 1.28; for U12C A42G it is 1.48. The figure for U12C A42C is 0.85; for U9C C120U it is 1.3; for G10A G97A it is 0.09.

For U12C G82C, the self-cleavage was 2.15. With U9G A136G the figure was 0.68.
